Test results taken from the nanobody polyreactivity screen of Harvey et al. (2022).

assay: yeast display, Sf9 membrane polyspecificity reagent, FACS + sequencing; frameworks hold sequencing errors
Summary of the method: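 Nanobodies from a synthetic yeast display library (Saccharomyces cerevisiae BJ5465), induced 36–48 hours with galactose, were stained 1 hour at 4 °C with 10% biotinylated, detergent-solubilized Sf9 membrane reagent, enriched on streptavidin microbeads, then FACS-sorted. Anti-HA (expression) and streptavidin (reagent binding) fluorescence set low and high (top ~1%) gates. Polyreactivity labels come from the gate of origin. Genes were colony-PCR amplified, MiSeq 2 × 250 sequenced and filtered by CDR length.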

Row | Sequence | polyreactivity (PSR sort gate)
1 | QVQLVESGGGLVQAGGSLRLSCAASGLIFSAYDMGWYRQAPGKERELVASITSGGSTYYADSVKGRFTISRDNAKNTVYLQMNSLKPEDTAVYYCNADGGWYPYRWRYIEGEYWGQGTQVTVSS | low polyreactivity
2 | QVQLVESGGGLVQAGGSLRLSCAASGLIFSDNAMGWYRQARGKEREFVASISDSGTTTYYADSVKGRFTISRDNAKNTVYLQMNSLKPEDTAVYDCNARPGQSGARFGYWGQGTQVTVSS | high polyreactivity
3 | QVQLVESGGGLVQAGGSLRLSCAASGLIFSFYAMGWYRKAPGKERELVATISNTDSTNYADSVKGRFTISRDNAKNTVYLQMNRLKPEDTAVYYCAADVWDGRYLYTGVYDYWGQGTQVTVSS | low polyreactivity
4 | QVQLVESGGGLVQAGGSLRLSCAASGLIFSKNVMGRYRQAPGKERELVAAISQRGGSTYYADSVKGRFTISRDNAKNTVYLQMNSLKPEDTAVYYCAADNTVSHEDYWGQGTQVTVSS | high polyreactivity
5 | QVQLVESGGGLVQAGGSLRLSCAASGLIFSRNAMGRYRQAPGKERELVAAITTGGSTYYADSVKGRFTISRDNAKNTVYLQMNSLKPEDTAVYYCAAAPGYIYEYWGQGTQVTVSS | low polyreactivity
6 | QVQLVESGGGLVQAGGSLRLSCAASGLIFSRYAMGWYRQAPGKERELVAAITYRTVRTYYADSVKGRFTISRDNAKNTVYLQMNSLKPEDTAVYYCAADSARQRDYWGQGTQVTVSS | high polyreactivity
7 | QVQLVESGGGLVQAGGSLRLSCAASGLIFSSNAMGWYRQAPGKERELVAAISSRGGRTYYADSVKGRFTISRDNAKNTVYLQMNSLKPEDTAVYYCAKYFTEVSRHTYDYWGQVTQVTVSS | high polyreactivity
8 | QVQLVESGGGLVQAGGSLRLSCAASGLIFSSNVMGWYRQAPGKERQLVAAIRQRGGSTRYADSVKGRFTISRDNAKNTVYLQMNSLKPEDTEVYYCAADTYYSHSWDSYDYWGQGTQVTVSS | low polyreactivity
9 | QVQLVESGGGLVQAGGSLRLSCAASGLIFSTYAMGWYRQAPGKERELVASISSSGGSTYYADSVKGRFTISRDNAKNTVYLQMNSLKPEDTAVYYCAAVTKRYQPTYYITYGYWGQGTQVTVSS | high polyreactivity
10 | QVQLVESGGGLVQAGGSLRLSCAASGLIFSYSALAWYRQAPGKERELVGSMSTSGGNTNYADSVKGRFTISRDNAKNTVYVQMNSVKPVDTAVYYCAAGIGKQYHTGYPTAGRKYGYWGQGTQVTVSS | high polyreactivity
11 | QVQLVESGGGLVQAGGSLRLSCAASGLIFSYYAMGWYRQAPGKERELVAAITGSGGTTYYADSVKGRFTISRDNAKNTVYLQMNSLKPEDTAVYYCATPPPEVWQRWYREYDYWGQGTQVTVSS | low polyreactivity
12 | QVQLVESGGGLVQAGGSLRLSCAASGLIFSYYAMGWYRQAPGKERELVGAITGSGGSTYYADSVKGRFTISRDNAKNTVYLQMNSLKPEDTAVYYCAAGRYAYTLSRKYDYWGQGTQVTVSS | high polyreactivity
13 | QVQLVESGGGLVQAGGSLRLSCAASGLIFSYYPMGWYRQAPGKERELVAAITGSGGTTYYADSVKGRFTISRDNAKNTVYLQMNSLKPEDTAVYYCATSPPEVWQRWYREYDYWGQVTQVTVSS | low polyreactivity
14 | QVQLVESGGGLVQAGGSLRLSCAASGLIFSYYVMGWYRPAPGKERELVAAINRSGGSTYYADSVKGRFTISRDNAKNTVYLQMNSLKPEDTAVYYCAAEKLGTNFEYWGQGTQVTVSS | high polyreactivity
15 | QVQLVESGGGLVQAGGSLRLSCAASGLIFTDYAMGWYRQAPGKDRELVATITARGGDTYYADSVKGRFTISRDNAKNTVYLQMNSLKPEDTAVYYCAAEYLSGGEAGMYYWGQGTQVTVSS | low polyreactivity
16 | QVQLVESGGGLVQAGGSLRLSCAASGLIFTRYTMGWYRQAPGKERELVAGISWSGGRTYYADSVKGRFTISRDKAKYTVYLQMNSLKPEDTAVYYCAADSYYSRAYDYWGQGTQVTVSS | high polyreactivity
17 | QVQLVESGGGLVQAGGSLRLSCAASGLIFTSYAMGWYRQATGKERELVAAISGSAASTYYADSVKGRFTISRDNAKNTVYLQMNSLKPEDTAVYYCAADYQGYTPSDGRYYWGQGTQVTVSS | low polyreactivity
18 | QVQLVESGGGLVQAGGSLRLSCAASGLIFTVNTMGWYRQAPGKERELVATIHTIGDGTNYADSVKGRFTISRDNAKNTVYLQMNSLKPEDTAVYYCAAYAGSVRPGDLYGYDYWGQGTQVTVSS | low polyreactivity
19 | QVQLVESGGGLVQAGGSLRLSCAASGLIFTYNAMGWYRQAPGKERELVASISWGGGSTYYADSVKGRFTISRDNAKHTVYLQMHSLKPEDTAVYYCNAKFKTVHTYGDTIFDRYDYWGQGTQVTVSS | low polyreactivity
20 | QVQLVESGGGLVQAGGSLRLSCAASGLIFVPYAMGWYIQAPGKERELVAAISRSGGSTYYADSVKGRFTISRDNAKNTVYLQMNSLKPEDTAVYYFATLNYYGEVEYWGQGTQVTVSS | high polyreactivity
21 | QVQLVESGGGLVQAGGSLRLSCAASGLIFVRYAMGWYRQAPGKERELVADISTSDGSTRYADSVKGRFTISRDNEKNTVYLQMNSLKPEDTAVYYCAGGSEYYSYGGVRFSFYYWGQGTQVTVSS | low polyreactivity
22 | QVQLVESGGGLVQAGGSLRLSCAASGLIFVSYAMGWYRQEPGKERELVASITDSDSSTYYADSVKGRFTISRDNAKNTVYLQMNSLKPEDTAVYSCATGGRTEIWYPTLDYWGQGTQVTVSS | low polyreactivity

Row | Sequence | polyreactivity (PSR sort gate)
23 | QVQLVESGGGLVQAGGSLRLSCAASGLIFVYNDMGWYRQAPGKERELVAGITGTGGNTYYADSVKGRFTISRDNAKNTVYLQMNSLKPEDTAVYYCAAQRSVFKSFRTTYVRYDYWGQGTQVTVSS | high polyreactivity
24 | QVQLVESGGGLVQAGGSLRLSCAASGLIFVYYTMGWYRQAPGKERELVAAIRSGGGTNYADSVKGRFTISRDNAKNTVYFQMNSLKPEDTAVYYCAASIRSYAYGGRKYNYWGQGSQVTVSS | high polyreactivity
25 | QVQLVESGGGLVQAGGSLRLSCAASGLIFWAYAMGWYRQAPGKERELVAAISWSGARTYYADSVKGRFTISRDNAKNTVYLQMNSLKPEDTAVYYCAAGVSSSSSGYEGDYWGQGTQVTVSS | high polyreactivity
26 | QVQLVESGGGLVQAGGSLRLSCAASGLIFWAYAMGWYRQAPGTDRELVAAINWRGGSTYYADSVKGRFTISRDTAKNTVYLQMNSLKPEDTAVYYCAADSYYDEYDYWGQGTQVTVSS | low polyreactivity
27 | QVQLVESGGGLVQAGGSLRLSCAASGLIFWINAMGWYRQAPWKERDLVAAITNSGGDTYYADSVKGRFTISRDNAKKTVYLQMNSLKTEDTAVYYCNADGTKWVRETYDYWGQGTQVTVSS | low polyreactivity
28 | QVQLVESGGGLVQAGGSLRLSCAASGLIFWRYDMGWYRQAPGKERELVAVITSGGNTYYADSVKGRFTISRDNAKNTVYLQMNSLKPEDTAVYYCNADTWRDDYDYWGQGTQVTVSS | low polyreactivity
29 | QVQLVESGGGLVQAGGSLRLSCAASGLIFYAYAMGWYRQAPGKEREFVAAINNSGGRTYYADSVKGRFTISRDNAKNTVYLQMYSLKPEDTAVYYCAVYSYYRRTYRREMDYWGQGTQVTVSS | high polyreactivity
30 | QVQLVESGGGLVQAGGSLRLSCAASGLIFYDNLGWYRQAPGKERELVAAISSSGGSTSYADSVKGRFTISRDNAKNTVYLQMNSLKPEDTAVYYCAADSYPAYLGFVGFDYWGQGTQVTVSS | low polyreactivity
31 | QVQLVESGGGLVQAGGSLRLSCAASGLIFYDNMGWYRQAPGKERELVAAISSSGGSRTYAYSVKGRFTISRDNAKNTVYFQMNSLKPEDTEVYYCALDKHYYGRYGVTYDYDYWGQGTQVTVSS | low polyreactivity
32 | QVQLVESGGGLVQAGGSLRLSCAASGLIFYDNMGWYRQAPGKERELVAAISSSGGSTSYADSVKGRFTISRDNAKNTVYLQMNSLKPADTAVYYCAADSYPAYLGFVGFDYWGQGTQVTVSS | low polyreactivity
33 | QVQLVESGGGLVQAGGSLRLSCAASGLIFYEHAMGWYRQAPGKERELVAAINYDGDSTYYADSVKGRFTISRDNAKITVYLQMNSLKPEDTAVYYCAADGGWVLFWMDYCGQGTQVTVSS | low polyreactivity
34 | QVQLVESGGGLVQAGGSLRLSCAASGLIFYFNAIGWYRQAPGKERELVASITRTGSTNYADSVKGRFTISRDNAKNTVYLHMNRLKPEYTAVYYCSAPWTQILDYWGQGTQVTVSS | low polyreactivity
35 | QVQLVESGGGLVQAGGSLRLSCAASGLIFYHNARGWYRQAPGKERELVAAITASGGSTYYADSVKGRFTISRDNAKNTVYFQMNSLKPEDTAVYYCAADGPLDSDLDYWGQGTQVTVSS | low polyreactivity
36 | QVQLVESGGGLVQAGGSLRLSCAASGLIFYIYAMGWYRQAPGKERELVAAITTGGRTNYADSVKGRFTISRDNAKNTVELQMNSLKPEDTAVYYCAKDFPIWISHGPDTDNDYWGQGTQVTVSS | low polyreactivity
37 | QVQLVESGGGLVQAGGSLRLSCAASGLIFYKNTMGWYRQAPGKERELVATITGRGGRTYYADSVKGRFTISRDIAKNSVYFQMNSLKPEDTAVYYCAARNQGRGYYWGQGTQVTVSS | high polyreactivity
38 | QVQLVESGGGLVQAGGSLRLSCAASGLIFYNYAMGWYRQAPGKERELVAAISSGGSTYYADSVKGRFTISRDNAKNTVYLQMNSLKPEDTAVYYCAASGPGYSRYTQYDSWGQGTQVTVSS | high polyreactivity
39 | QVQLVESGGGLVQAGGSLRLSCAASGLIFYNYAMGWYRQAPGKERELVAAITSGGSTYYADSVKGGFTISRDNAKNTVYLQMNSLKPEDTAVYYWAADLTYTVPFDYWGQGTQVTVSS | high polyreactivity
40 | QVQLVESGGGLVQAGGSLRLSCAASGLIFYPYAMGWYRQAPGKERELVAAISSGGSTNYADSVKGRFTISRDNAKNTVYLQMNSLKPEDTAVYYCAKRYPSFRGYGSFRYSGRKYWGQGTQVTVSS | high polyreactivity
41 | QVQLVESGGGLVQAGGSLRLSCAASGLIFYRNAMGWYRQAPGKERELVAGITRGSNTYYADSVKGRFTISRVNAKNTVYLQMNSLKPEDTAVYYCAAQVPVLQRAGNTRFGYWGQGTQVTVSS | low polyreactivity
42 | QVQLVESGGGLVQAGGSLRLSCAASGLIFYRYTMGWYRQAPGKERELVAAISRRGGSTFYADSVKGRFTISRDNAKNTVYLQMNSLKPEDTAVYYCAAASWYRRKIYYSWGQGTQVTVSS | high polyreactivity
43 | QVQLVESGGGLVQAGGSLRLSCAASGLIFYRYVMGWYRQAPGKERELVASISTSGGRTYYADSVKGRFTISRDNAKNTVYLQMNSLKPEDTAVYYFAADFESYSRYYDGYDYWGQGTQVTVSS | high polyreactivity
